Experimental data taken from patent US20210087271A1.
“And” between values parts separate entries of the source, which are not always exact repeats. Identical values can stand only once.

Assays:
C1q [1] = biological target: C1q (UniProt P02745); assay: flow cytometry; antibody on CD3 peptide-coated SA Dyna Beads incubated with C1q
C1q [2] = biological target: C1q (UniProt P02745); assay: SPR Biacore 8K; IgG captured on biotinylated CD3 peptide SA chip; 1 µM C1q, pH 7.4
FcRn = FcRn (UniProt P55899); assay: SPR Biacore 8K; IgG captured on biotinylated CD3 peptide SA chip; 1 µM FcRn, pH 6.0
FcγRIIA (human) [3] = biological target: FcγRIIA (human) (UniProt P12318); assay: SPR Biacore 8K; IgG captured on biotinylated CD3 peptide SA chip; 1 µM FcγRIIA, pH 7.4
Sequence of UniProt P12318 (P12318 36-218 limits assumed): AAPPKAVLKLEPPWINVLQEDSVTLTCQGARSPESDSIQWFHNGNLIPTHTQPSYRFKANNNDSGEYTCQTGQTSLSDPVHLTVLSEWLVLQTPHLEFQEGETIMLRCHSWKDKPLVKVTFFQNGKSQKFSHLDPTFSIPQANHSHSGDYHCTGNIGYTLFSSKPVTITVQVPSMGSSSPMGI

FcγRI (human) [4] = biological target: FcγRI (human) (UniProt P12314); assay: SPR Biacore 8K; IgG captured on biotinylated CD3 peptide SA chip; 100 nM FcγRI, pH 7.4
Sequence of UniProt P12314 (P12314 16-288 limits assumed): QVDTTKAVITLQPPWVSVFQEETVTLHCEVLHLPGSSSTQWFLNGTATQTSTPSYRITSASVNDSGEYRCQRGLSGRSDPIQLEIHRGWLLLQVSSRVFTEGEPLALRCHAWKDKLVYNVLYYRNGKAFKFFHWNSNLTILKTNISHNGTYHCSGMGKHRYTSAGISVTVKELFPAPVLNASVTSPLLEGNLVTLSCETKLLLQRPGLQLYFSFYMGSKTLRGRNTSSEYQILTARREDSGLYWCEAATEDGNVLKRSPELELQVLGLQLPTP

FcγRIIIA (human) = FcγRIIIA (human) (UniProt P08637); assay: SPR Biacore 8K; IgG captured on biotinylated CD3 peptide SA chip; 1 µM FcγRIIIA, pH 7.4
Sequence of UniProt P08637 (P08637 17-208 limits assumed): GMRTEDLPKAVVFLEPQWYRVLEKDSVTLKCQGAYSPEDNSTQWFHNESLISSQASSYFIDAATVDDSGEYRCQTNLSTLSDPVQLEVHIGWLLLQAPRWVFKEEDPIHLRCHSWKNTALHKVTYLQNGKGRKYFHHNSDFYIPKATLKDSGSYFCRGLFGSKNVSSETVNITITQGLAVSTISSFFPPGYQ

FcγR on THP-1 cells = assay: flow cytometry; 100 nM antibody pre-complexed with 10 nM biotinylated CD3 peptide, on THP-1 cells
FcγRI (human) [5] = biological target: FcγRI (human) (UniProt P12314); assay: SPR Biacore 8K, response vs WT
FcγRIIA (human) [6] = biological target: FcγRIIA (human) (UniProt P12318); assay: SPR Biacore 8K, response vs WT
CD3 = assay: BLI ForteBio; IgG on AHQ sensor, 100 nM antigen, 1:1 model

Sequence of UniProt P02745 (P02745 23-245 limits assumed, chain 1 of 3): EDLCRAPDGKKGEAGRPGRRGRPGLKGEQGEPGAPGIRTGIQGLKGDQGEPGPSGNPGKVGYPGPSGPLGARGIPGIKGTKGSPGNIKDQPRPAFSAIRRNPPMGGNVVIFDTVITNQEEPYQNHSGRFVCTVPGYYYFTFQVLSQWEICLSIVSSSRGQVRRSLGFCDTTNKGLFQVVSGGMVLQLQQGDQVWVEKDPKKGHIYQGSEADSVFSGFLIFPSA
Sequence of UniProt P02745 (P02746 28-253 limits assumed, chain 2 of 3, further chain): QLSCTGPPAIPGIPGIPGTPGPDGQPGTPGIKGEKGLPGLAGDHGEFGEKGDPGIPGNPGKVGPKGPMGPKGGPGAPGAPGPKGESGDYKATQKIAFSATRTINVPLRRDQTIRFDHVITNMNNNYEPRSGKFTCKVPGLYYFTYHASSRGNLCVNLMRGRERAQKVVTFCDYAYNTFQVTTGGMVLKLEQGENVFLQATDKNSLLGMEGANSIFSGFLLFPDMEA
Sequence of UniProt P02745 (P02747 29-245 limits assumed, chain 3 of 3, further chain): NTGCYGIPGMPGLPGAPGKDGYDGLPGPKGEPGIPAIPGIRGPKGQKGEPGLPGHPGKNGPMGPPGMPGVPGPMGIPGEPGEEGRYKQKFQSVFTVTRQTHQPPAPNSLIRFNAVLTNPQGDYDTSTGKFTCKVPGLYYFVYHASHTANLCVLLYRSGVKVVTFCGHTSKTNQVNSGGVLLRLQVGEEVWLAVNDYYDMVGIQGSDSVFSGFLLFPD

| C1q Binding (MFI) (C1q [1]) | late association response (RU) (C1q [2]) | late association response (RU) (FcRn) | late association response (RU) (FcγRIIA (human) [3]) | late association response (RU) (FcγRI (human) [4]) | late association response (RU) (FcγRIIIA (human)) | THP-1 Binding (MFI) (FcγR on THP-1 cells) | % reduction of binding compared to WT (FcγRI (human) [5]) | % reduction of binding compared to WT (FcγRIIA (human) [6]) | Kd (CD3) | Substance |
| --- | --- | --- | --- | --- | --- | --- | --- | --- | --- | --- |
| 1980 MFI | -13.9 RU | 44 RU | 0.1 RU | 23.5 RU | 0.6 RU | 5270 MFI |  |  |  | LALA variant of the CD3 antibody (WT engineered to contain L234A and L235A) (from UniProt P01857 1-330) |
| 621 MFI | -3.3 RU | 45.1 RU | -0.1 RU |  | -0.5 RU | 169 MFI | > 95% and 97.6% | > 95% and 100% | 3.9 nM | LALA-PA variant of the CD3 antibody (WT engineered to contain L234A and L235A and P329A) (from UniProt P01857 1-330) |
| 676 MFI | -25.1 RU | 44.5 RU | -0.1 RU | 2 RU | -0.3 RU | 146 MFI |  |  |  | LALA-PG variant of the CD3 antibody (WT engineered to contain L234A and L235A and P329G) (from UniProt P01857 1-330) |
| 1790 MFI | -27.3 RU | 38.9 RU | 0.1 RU |  | 0.4 RU | 5300 MFI |  |  |  | LALE variant of the CD3 antibody (WT engineered to contain L234A and L235E) (from UniProt P01857 1-330) |
| 660 MFI | -23.3 RU | 38.1 RU | -0.1 RU | 0.8 RU | -0.1 RU | 124 MFI |  |  |  | LALE-PA variant of the CD3 antibody (WT engineered to contain L234A and L235E and P329A) (from UniProt P01857 1-330) |
| 865 MFI | -6.5 RU | 37.3 RU | 0 RU | 0.8 RU | -0.3 RU | 124 MFI | 99.1% | 100% |  | LALE-PG variant of the CD3 antibody (WT engineered to contain L234A and L235E and P329G) (from UniProt P01857 1-330) |
